The test has as its target Human Herpes Simplex Virus glycoprotein D (Human Herpes Simplex Virus) (UniProt Q69091). As to the kind of experiment: differential scanning calorimetry; peak height of the DSC thermogram of the pure protein compared with a DNA hairpin standard curve; ratio of the calorimetric concentration to the UV-Vis or dry-weight concentration read as stoichiometry; 150 mM NaCl, 10 mM potassium phosphate, 15 mM sodium citrate, pH 7.4; heating about 1°C/min. On the technique in general: DSC measures the heat that a sample takes up or gives off during a temperature scan.

For orientation: stoichiometry N means a count of units in the complex or per binding partner. “Human Herpes Simplex Virus glycoprotein D (from UniProt Q69091 26-394) (natural protein)”: the factor of the transition heat capacity over the average of the other molecules came out at 2.2 fold, the percent of dimers in the sample worked out at 35%, the percent of trimers in the sample worked out at 65% and the stoichiometry N came out at 2.65.

(Values after article PMC10906865.)
